Measured values reported in CN101151278A (GENENTECH INC, dated 2008).
Changes are numbered by the printed parent chain. Names may count otherwise. One block for each binder: values may come before it.

Key:
[1] = biological target: T1, CD20 on WIL2-S cells (human, UniProt P11836 1-297); assay: competitive Scatchard on WIL2-S cells, apparent Kd; competitor of 125I-2H7.v138
T1 construct: whole, on cells; also called CD20抗原; 人CD20
T1 sequence (looked up): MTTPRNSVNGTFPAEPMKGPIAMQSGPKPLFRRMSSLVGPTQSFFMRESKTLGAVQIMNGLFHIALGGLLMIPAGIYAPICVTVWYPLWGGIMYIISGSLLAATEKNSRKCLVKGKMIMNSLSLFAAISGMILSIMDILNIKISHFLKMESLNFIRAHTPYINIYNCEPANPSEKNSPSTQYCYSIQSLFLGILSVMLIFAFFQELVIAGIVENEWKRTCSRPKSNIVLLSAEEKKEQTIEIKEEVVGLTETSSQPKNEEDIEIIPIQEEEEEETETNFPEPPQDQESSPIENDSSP

[2] = biological target: T1, CD20 on WIL2-S cells; assay: competitive Scatchard on WIL2-S cells, apparent Kd; competitor of 125I-2H7.v511
[3] = biological target: T2, 人FcRn (human, UniProt P55899 24-297; P61769 21-119, limits assumed); assay: ELISA, biotinylated human FcRn on NeutrAvidin plate, pH 6.0
T2 construct: immobilised on a CM5 chip (BIAcore) or biotinylated and captured on NeutrAvidin (ELISA); also called huFcRn; human FcRn

[4] = biological target: T2, 人FcRn; assay: ELISA, biotinylated human FcRn on NeutrAvidin plate, pH 7.4

B1: hu2H7.v511 (antibody, human IgG1, kappa, V domains shown)
VH: EVQLVESGGGLVQPGGSLRLSCAASGYTFTSYNMHWVRQAPGKGLEWVGAIYPGNGATSYNQKFKGRFTISVDKSKNTLYLQMNSLRAEDTAVYYCARVVYYSYRYWYFDVWGQGTLVTVSS
VL: DIQMTQSPSSLSASVGDRVTITCRASSSVSYLHWYQQKPGKAPKPLIYAPSNLASGVPSRFSGSGSGTDFTLTISSLQPEDFATYYCQQWAFNPPTFGQGTKVEIKR
notes: full-length IgG1
- Kd [1]: 0.11 nM
- Kd [2]: 0.45 nM

B2: 2H7.v477 (antibody, human IgG1, kappa)
heavy: EVQLVESGGGLVQPGGSLRLSCAASGYTFTSYNMHWVRQAPGKGLEWVGAIYPGNGATSYNQKFKGRFTISVDKSKNTLYLQMNSLRAEDTAVYYCARVVYYSASYWYFDVWGQGTLVTVSSASTKGPSVFPLAPSSKSTSGGTAALGCLVKDYFPEPVTVSWNSGALTSGVHTFPAVLQSSGLYSLSSVVTVPSSSLGTQTYICNVNHKPSNTKVDKKVEPKSCDKTHTCPPCPAPELLGGPSVFLFPPKPKDTLMISRTPEVTCVVVDVSHEDPEVKFNWYVDGVEVHNAKTKPREEQYNATYRVVSVLTVLHQDWLNGKEYKCKVSNAALPAPIAATISKAKGQPREPQVYTLPPSREEMTKNQVSLTCLVKGFYPSDIAVEWESNGQPENNYKTTPPVLDSDGSFFLYSKLTVDKSRWQQGNVFSCSVMHEALHWHYTQKSLSLSPGK
light: DIQMTQSPSSLSASVGDRVTITCRASSSVSYLHWYQQKPGKAPKPLIYAPSNLASGVPSRFSGSGSGTDFTLTISSLQPEDFATYYCQQWAFNPPTFGQGTKVEIKRTVAAPSVFIFPPSDEQLKSGTASVVCLLNNFYPREAKVQWKVDNALQSGNSQESVTEQDSKDSTYSLSSTLTLSKADYEKHKVYACEVTHQGLSSPVTKSFNRGEC
notes: IgG1; 2H7.v138 with N434W
- binding result [3]: binds

B3: 2H7.v478 (antibody, human IgG1, kappa, name in EU numbering)
heavy: B2 heavy with W439F
light: B2 light
notes: IgG1; 2H7.v138 background with the N434 change
- binding result [3]: binds

B4: 2H7.v364 (antibody, human IgG1, kappa, name in EU numbering)
heavy: B2 heavy with W439A
light: B2 light
notes: as for B3
- binding result [4]: binds

Second part, the binder after the results:

- binding result [4]: binds
B5: 2H7.v479 (antibody, human IgG1, kappa, name in EU numbering)
heavy: B2 heavy with W439Y
light: B2 light
notes: as for B3

- binding result [4]: binds
B6: 2H7.v138 (antibody, human IgG1, kappa)
heavy: B2 heavy with W439N
light: B2 light
notes: IgG1
